These results are taken from PMC5426849.

The test addresses fluoresceinated cortactin phospho-Y482 peptide. As to the kind of experiment: fluorescence polarisation. On the technique in general: In fluorescence polarisation assays a small probe gives low polarisation when free and higher when bound to something large.

A word on the Kd: it is the equilibrium constant for the complex coming apart. “Abl SH2 domain, monomeric, cleaved from GST (from UniProt P00519 127-217) (domain or fragment)” came in with a Kd above 5 µM.

In the case of “PLCγ C-terminal SH2 domain, cleaved from GST (domain or fragment)”, the Kd was above 5 µM.

As for “PLCγ N-terminal SH2 domain, cleaved from GST (domain or fragment)”, the Kd was above 5 µM.

Consider “p85α C-terminal SH2 domain, cleaved from GST (domain or fragment)”, for which the Kd is above 5 µM.

Substance “p85α N-terminal SH2 domain, cleaved from GST (domain or fragment)” returned a Kd above 5 µM.
